Test results published in doi:10.1101/2019.12.15.877159.

Tests used:
Assay in all cases: non-reducing SDS-PAGE and western blot
[1] = molecular target: transmembrane peptide of sDscamα (Mesobuthus martensii)
[2] = molecular target: transmembrane peptide of sDscamβ2 (Mesobuthus martensii)
[3] = molecular target: transmembrane peptide of sDscamβ3 (Mesobuthus martensii)
[4] = molecular target: transmembrane peptide of sDscamβ4 (Mesobuthus martensii)
[5] = molecular target: transmembrane peptide of sDscamβ5 (Mesobuthus martensii)
[6] = molecular target: transmembrane peptide of sDscamβ6 (Mesobuthus martensii)

transmembrane peptide of sDscamα (domain or fragment)
stoichiometry N [1]: 2

transmembrane peptide of sDscamβ2 (domain or fragment)
stoichiometry N [2]: 2

transmembrane peptide of sDscamβ3 (domain or fragment)
stoichiometry N [3]: 2

transmembrane peptide of sDscamβ4 (domain or fragment)
percent of dimers [4]: < 10% | stoichiometry N [4]: 2

transmembrane peptide of sDscamβ5 (domain or fragment)
percent of dimers [5]: < 10% | stoichiometry N [5]: 2

transmembrane peptide of sDscamβ6 (domain or fragment)
stoichiometry N [6]: 2
